Target: the molecule itself
Assay: magnetic tweezers force spectroscopy

| Protein | stacking energy [kBT] |
| --- | --- |
| HMfA homodimer (Methanothermus fervidus histone HMfA) (natural protein) not shown | 1.81 |
| HMfA_(K31A E35A) (natural protein) not shown | 1.18 |
| HMfB homodimer (Methanothermus fervidus histone HMfB) (natural protein) not shown | 3.44 |
| HMfB_(D14A K30A E34A) (natural protein) not shown | 1.07 |

Source: article PMC8096283 (Nucleic Acids Research, 2020)
